Columns and labels:
Details in all cases: FMN input: 0 or 200 uM; Eterna round: R93 (includes R88 designs)
MS2 coat protein [1] = experiment: apparent KD of MS2 coat protein, switch ON state; designed switch direction (-1 OFF switch, 1 ON switch): 1; higher = weaker reporter binding
In short: (§1)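 Illumina sequencing clusters were used for on-chip transcription of designed RNA switches. Titration with SNAP-549-labelled MS2 coat protein followed, in twofold steps from 0.7 or 1.5 nM to 3 µM in 100 mM Tris-HCl pH 7.5, 80 mM KCl, 4 mM MgCl2, without or with constant ligand. Apparent KD is each design's median of fits to normalised cluster binding curves.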

MS2 coat protein [2] = experiment: apparent KD of MS2 coat protein, switch OFF state (with FMN for OFF switches, without FMN for ON switches); designed switch direction (-1 OFF switch, 1 ON switch): 1; higher = weaker reporter binding
In short: as §1

MS2 coat protein [3] = experiment: apparent KD of MS2 coat protein, switch ON state; designed switch direction (-1 OFF switch, 1 ON switch): -1; higher = weaker reporter binding
In short: as §1

MS2 coat protein [4] = experiment: apparent KD of MS2 coat protein, switch OFF state (with FMN for OFF switches, without FMN for ON switches); designed switch direction (-1 OFF switch, 1 ON switch): -1; higher = weaker reporter binding
In short: as §1

Sequence	apparent KD of MS2 coat protein (MS2 coat protein [1]) [nM]	apparent KD of MS2 coat protein (MS2 coat protein [2]) [nM]	apparent KD of MS2 coat protein (MS2 coat protein [3]) [nM]	apparent KD of MS2 coat protein (MS2 coat protein [4]) [nM]
AAAAGACAUGAGGAUCACCCAUGUCAAAAGACAUGAGGAUAUGUACAGACUUCGGUCUGUACAGAAGGCAUAAAAA [SS1 - 1060]	18.6	32.5	–	–
AGAAAUAAAGCGAAGGAUAUCCAAACCUAAACAUGAGGAUCACCCAUGUAAAAGAAAAUAAAAUGGGAGAAGGUCGCAAAUAAGA [Designing denovo 14]	13.5	22.8	–	–
AAAAUAAAAUAAAAGGAUAUAAAAUAAAAAACAUGAGGAUCACCCAUGUAAAAACAUGGGAAAAAAAAGAAGGAAAAAUAAAAAA [SS2: 71 No MS2]	603	1280	–	–
AAAAAACAUGAGGAUCACCCAUGUCGAAAGACAUGAGGAUAUGUACAGACUUCGGUCUGUACAGAAGGCAUGAAAA [SS1 - 1012]	114	79.3	–	–
AGACAUAAAAGAGAGGAUAUCCAAAAGAAAACAUGAGGAUCACCCAUGUGAAAGAAAAUAAAAUGGGAGAAGGCUCACAUACAGA [Topaz 36]	14.1	27.4	–	–
GGGAGACAUGAGGAUCACCCAUGUAGAAGGAUGGGAGGAUAUACAAAGACGAGAGUCAGAGUAGAAGGCCUAGGAA [salish99-ss1-189-4KCAL]	29	58.5	–	–
AAAAAAAAAAGUGAGGAUAUGGGAAAAUUAACAUGAGGAUCACCCAUGUGAUAAAAAAAAAAAAACCAGAAGGUACAAAAAAAAAA [Same 2]	26.1	35	–	–
AAAGAAAAACUAGAGGAUAUCCGAGUGGUAACAUGAGGAUCACCCAUGUGACGAAAGGAACAUGAGGAGAAGGCUAGAAGAAAAA [JL Nando mod 9]	46.3	315	–	–
UGUCCACAUGAGGAUCACCCAUGUCAGGAGGUGACAGGAUAUUGCGAAAAAAAAAAAAAGCAAGAAGGGUCUGAUU [SameState1-cac1]	36.4	98.4	–	–
AAAGAAAAACUAGAGGAUAUCUGAGUGGUAACAUGAGGAUCACCCAUGUGAAGAAAGGAGCAUGAGGAGAAGGCUAGAAGAAAAA [JL Nando mod 22]	11.7	59	–	–
AAUACACAUGAGGAUCACCCAUGUAGAAAGAAGUCAGGAUAUCCGAUCCACAUGUGAUAAGGAGAAGGGACAAUAA [SS 1 Tesla 8]	19.6	95.4	–	–
AGAAAUAAAACACAGGAUAUCCAAAAUAAAACAUGAGGAUCACCCAUGUAAAGAAAAGAAAAAUGGGAGAAGGGUGAAAAUAAGA [Mat - Same State 2 - JL mod - D19]	19.4	69.7	–	–
AAAUAAAUGACUGAGGAUAUAUCGAUGAGUACAUGAGGAUCACCCAUGUGUUAAUAAAAAGGGUGGUAGAAGGUAGUCAACAAAC [Mod 15 of Pariah 4 by Hyphema in Round 1]	112	51.2	–	–
AAAAAAAAAAGACAGGAUAUACAAUAUAUUACAUGAGGAUCACCCAUGUUUUUUUUUUAAUUAAAGUAGAAGGGUCAAAAAAAAAA [SS 2.1]	25.6	30.3	–	–
AAAACACAUGAGGAUCACCCAUGUGAGGAUAUGCGAGUGAAAAUAAAAAUAAAACAUAGCAGAAGGCACAAGGA [Amethyst 80]	–	–	35.9	45
AACAGUACAGGAUAUACAUGAGGAUCACCCAUGUGAGAGAAAUAAAACAAAAAUAAAAGUAGAAGGGUACUGGA [Moding Maslow revisited (73) 22]	–	–	41.7	43.3
CUCUAGUGAGGAUAUACAAGAAAAGAAGAGAAAGAAAAGAAGUAGAAGGCACAUGAGGAUCACCCAUGUAAGAA [EteRNA is fun!]	–	–	24.7	33.6
GGGCCACAUGAGGAUCACCCAUGUAAGGAUAUGCUAGGGAGGGAAAAAAUUUCGCCAGGCAGAAGGUACUAAAG [Janelle Amethyst 18 Mod 7 - Jieux - Exclusion 1]	–	–	23.6	31.4
AAAAAACAUGAGGAUCACCCAUGUCAGGAUAUCGUGCAGAAAAAAAAAAAAAACUGCACGAGAAGGGACAUGAA [Mod of jnicol]	–	–	42	94.9
AGAGACAGAGGAUAUACAUGAGGAUCACCCAUGUAAGAGAAAGAAAAGGGAAAGAAAAGUAGAAGGCUGAGAGA [Ruby 67]	–	–	24.2	28.7
AAAAGCUAAGGAUAUACAUGAGGAUCACCCAUGUAGAACAGUGUAUGGGUAAAGGCGCGUAGAAGGUAGAAAAG [Arbileat]	–	–	29.9	42.1
AAGAAACAUGAGGAUCACCCAUGUGAGGAUAUCGAAGAAAGAAAGAAAGAAAGAAGAACGAGAAGGCACAAAGG [Publius Octavius]	–	–	42.7	59.3

Sequence	apparent KD of MS2 coat protein (MS2 coat protein [1]) [nM]	apparent KD of MS2 coat protein (MS2 coat protein [2]) [nM]	apparent KD of MS2 coat protein (MS2 coat protein [3]) [nM]	apparent KD of MS2 coat protein (MS2 coat protein [4]) [nM]
CUCAUGUGAGGAUAUGUACAGAAAAAAAUGGGUGAAACUGUACAGAAGGCACAUGAGGAUCACCCAUGUGCAAA [EX4 377: S S Pseudoknot 2]	–	–	19.1	21.4
AAGAAGGGAGGAUAUACUAAAGAAAUGAAAAGAAAUAAAGAACAUGAGGAUCACCCAUGUAGAAGGCCCAAGAA [Nehesy]	–	–	29.7	24.8
AACAUGUAAGGAUAUCAAAGAAAAGAAAAGAAAGAAAAGAAUGAGAAGGUACAUGAGGAUCACCCAUGUAAGAA [EteRNA is fun!]	–	–	27.9	21.1
AGCAAACAUGAGGAUCACCCAUGUCAGGAUAUGAACGAAAUAAAAUAAAAAUAAAAGUUCAGAAGGGACGAGCA [Mat - Exclusion 1 - Eli mod - D24]	–	–	32.3	43.5
AGUAGGCGAGGAUAUACAUGAGGAUCACCCAUGUGAAAGAAAAAAGUGAGAAAGAAAAGUAGAAGGCGCUGACA [Ex 3 mod of Eli's mod of Lego's 73%]	–	–	60.4	204
AAAAAGUGAGGAUAUACAUGAGGAUCACCCAUGUGUAUAAAAAAUUACACAAAAGAAUGUAGAAGGCACUAAAA [JL Mayanne Mod Summer]	–	–	23.5	124
CUCAAGUUAGGAUAUCCAAGAAAAGAAGAGAAAGAAAAGAAGGAGAAGGAACAUGAGGAUCACCCAUGUAAGAA [EteRNA is fun!]	–	–	32.8	38.5
ACCCUGCUAGGAUAUACAGCAGGGAUUCGAAAACCCACGAAACAUGAGGAUCACCCAUGUAGAAGGAGUAGGGA [Bimaat]	–	–	17.5	16
AAGAGUACAGGAUAUAUAUGAAAAGAGUCGAAAGACUCAAAACAUGAGGAUCACCCAUGUAGAAGGGUACUCAA [Hyphema Seclusion Mod 62% 1]	–	–	36.8	22.9
AAGAAGCUAGGAUAUACAUGAGGAUCACCCAUGUAAAAGAAAGAAAAGGGAAAGAAAAGUAGAAGGAGCAAGAA [Menpehtire Ramesses I]	–	–	28.7	35.6
AAAAUGGCAGGAUAUACUAAAAUAAAAAACUAUGCUAAAACACAUGAGGAUCACCCAUGUAGAAGGGCCAAAAA [AJ 5]	–	–	26.2	18.8
AGCUAGUCAGGAUAUACGAACAUGUCGGUGGACGUGAAGGGACAUGAGGAUCACCCAUGUAGAAGGGACUAGCA [salish99-Ex2-21]	–	–	41.3	91.5
AAAAAGUGAGGAUAUACGUUGAAGAGAAAACACAUCCAGGCGUAGAAGGCACAUGAGGAUCACCCAUGUACAAA [Ex4 Malc#7]	–	–	23.4	19.8
AAAACUGGAGGAUAUACAUGAGGAUCACCCAUGUGUGGAUGAGCUGUGUCGGCGUCAAGUAGAAGGCCACAAAA [Gilly Gone Silly 36 - Jieux - Exclusion 3]	–	–	36.7	43.1
GGUUGGCGAGGAUAUACAUGAGGAUCACCCAUGUGAGAGAAAAAAGUGAGAAAGAAAAGUAGAAGGUGUUGACG [salish99-ex3-70]	–	–	55.4	56.7
AAAAAACAUGAGGAUCACCCAUGUAAGGAUAUGCUAGGAAAAAGAAAAAUAAAAACUAGCAGAAGGUAUAUGAA [JL wbt mod 12]	–	–	24.5	27.4
AAAAAACAUGAGGAUCACCCAUGUCAGGAUAUCUGUAAAAAUUAAAAAAAUAAAAUACAGAGAAGGGACAUAAA [Ex1: 606]	–	–	44	100
AAAAAGUUAGGAUAUACAUGAGGAUCACCCAUGUACAUAUAUGGAGAAUAUAGCAGUAGUAGAAGGGACAAAAA [EX2 Malc#13]	–	–	26.9	34.8
GAAAAACAUGAGGAUCACCCAUGUAAGGAUAUGCUGAAAAAACACUGGAAACAGUGCAGCAGAAGGUACAAAAG [Mat - Exclusion 1 - Eli mod - D100]	–	–	20.3	73.3
AACAUGUAAGGAUAUGCUGCUCGUCACGAAAGUGAUGAGUAGCAGAAGGUACAUGAGGAUCACCCAUGUAAAGA	–	–	49	156
AACAGGUCAGGAUAUGUGUAAAAAAUAAAAAAAAUAUAAACACAGAAGGGACAUGAGGAUCACCCAUGUUAACA [May 26]	–	–	31.5	35.7
